Experimental data as given in the supplement of paper PMC9732359.
± gives the uncertainty stated by the source.

Assay: protein stability index of a GFP-peptide fusion (yeast GPS) (PSI 1-4); higher = more stable; sorted into four equal gates, so the index is relative within each strain
Summary of the method: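 Plasmids isolated from each sorting gate were PCR-amplified and Illumina-sequenced, and barcodes assigned the reads to strains. The gates, four of equal size, were set by GFP/Cherry fluorescence ratio on mid-log cultures in leucine-free medium. These cultures were yeast carrying a pooled library of tiled 17-residue yeast protein peptides fused downstream of GFP on a plasmid that also expresses Cherry. The protein stability index is the sum of every gate's read frequency times its gate number.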

Sequence | protein stability index (doa10∆) | protein stability index (pdr5∆) | protein stability index (san1∆) | protein stability index (ubr1∆)
YYGCLENDHERGFFHLN [CSN12] | 3.14 ± 0.063 | 3.24 ± 0.068 | 3.21 ± 0.047 | 3.26 ± 0.044
RNQVQTENVAQARIILN [YGR119C/NUP57] | 3 ± 0.1 | 2.9 ± 0.092 | 3.01 ± 0.05 | 2.78 ± 0.042
LYGPPGTGKTMLVKAVA [RPT3] | – | 1.17 ± 0.11 | 1.15 ± 0.21 | 1.37 ± 0.14
HRASPADVSIKSILQEI [POP5] | 3.11 ± 0.26 | 3.27 ± 0.1 | 2.95 ± 0.12 | –
DLSISALLGDKIYNFGE [RPN9] | 3.08 ± 0.068 | 3.11 ± 0.065 | 3.15 ± 0.061 | 3.12 ± 0.091
AGGPDMTTPQNISSSQQ [DSN1] | 2.83 ± 0.044 | 3.04 ± 0.04 | 2.83 ± 0.037 | 2.93 ± 0.04
GSENKRGSLDSEHVFDY [NUT1] | 3.37 ± 0.14 | 3.29 ± 0.11 | 3.32 ± 0.2 | 3.57 ± 0.05
LLTNDESAFENLMGNRN [SNF12] | 2.96 ± 0.14 | 2.7 ± 0.12 | 3 ± 0.19 | 3.14 ± 0.078
LPYLSDTCAVSFDAVSD [YJR042W/NUP85] | 2.44 ± 0.1 | 2.63 ± 0.059 | 2.55 ± 0.078 | 2.87 ± 0.05
QLHFSLLDEEAEQSFDQ [RPO21] | 2.51 ± 0.11 | 2.77 ± 0.14 | 3.29 ± 0.1 | 2.64 ± 0.22
PKALRFDRLVAGQIPTG [FAS2] | 2.15 ± 0.18 | – | 2.59 ± 0.25 | –
EEIKQSARNYDKFKLNE [SMC1] | 3.25 ± 0.066 | 3.24 ± 0.073 | 3.16 ± 0.076 | 3.31 ± 0.046
VTQKDICILGILDLCQL [CSI1] | 2.59 ± 0.091 | 2.85 ± 0.072 | 2.24 ± 0.11 | 1.29 ± 0.15
MSAKAEKKPASKAPAEK [HTB1] | 3.51 ± 0.13 | 3.41 ± 0.12 | 3.16 ± 0.12 | 2.89 ± 0.098
LNELKAIKDKLEQDLHF [YIL149C/MLP2] | 3 ± 0.07 | 3.13 ± 0.069 | 2.82 ± 0.07 | 3.24 ± 0.063
EVNSKKKNKRALPNIEN [BRR2] | 2.9 ± 0.14 | 3.2 ± 0.096 | 3.35 ± 0.088 | 3.09 ± 0.068
SSFEKFNDSQAIVCYIL [SRP72] | 2.43 ± 0.046 | 2.53 ± 0.047 | 2.42 ± 0.042 | 2.63 ± 0.031
TPSNIRSLCEVLVYDDK [RPC34] | 1.7 ± 0.077 | 1.84 ± 0.078 | 1.26 ± 0.11 | 1.59 ± 0.086
YWTQYLGLFIHKISFSG [YJL039C/NUP192] | 1.99 ± 0.076 | 1.8 ± 0.058 | 1.59 ± 0.1 | 1.89 ± 0.05
SLELQSFQKIPLSRINE [YML103C/NUP188] | 2.67 ± 0.12 | 2.82 ± 0.11 | 2.94 ± 0.07 | 2.88 ± 0.12
GLVDENKVEAFKSLYTF [YAR002W/NUP60] | 3.01 ± 0.089 | 2.65 ± 0.08 | 3.39 ± 0.054 | 2.83 ± 0.043
AVNSIMALKFVSIKFTN [ECM29] | – | 3.12 ± 0.11 | 2.87 ± 0.13 | 3.13 ± 0.22
DNNNGDDDDEDDDEIVM [SKP1] | 3.04 ± 0.065 | 2.93 ± 0.052 | 2.89 ± 0.04 | 2.99 ± 0.048
VQLKDANSQIQAYEEII [YIL149C/MLP2] | 2.69 ± 0.12 | 3.5 ± 0.17 | 3.37 ± 0.23 | 3.45 ± 0.12
GNSFNKSSNDTIEHAAD [YCG1] | 2.14 ± 0.058 | 2.67 ± 0.048 | 2.37 ± 0.047 | 2.64 ± 0.057

Sequence | protein stability index (doa10∆) | protein stability index (pdr5∆) | protein stability index (san1∆) | protein stability index (ubr1∆)
TLDKPNAEATKEEFSSA [CSE2] | 2.99 ± 0.11 | 3.12 ± 0.1 | 3.23 ± 0.064 | 3.13 ± 0.069
KLLTPQDMEAAKEVYKI [GAL11] | 3.13 ± 0.14 | 3.33 ± 0.14 | 3.43 ± 0.084 | 3.49 ± 0.11
AHTASVGVVFGSGAANE [COR1] | 3.23 ± 0.12 | 3.29 ± 0.084 | 3.07 ± 0.1 | 3.39 ± 0.12
TGTARLNSMPNNVNEYS [YJL039C/NUP192] | 2.82 ± 0.1 | 2.74 ± 0.085 | 3.01 ± 0.052 | 2.89 ± 0.056
EIINNKTSSQTSLSSKD [YMR153W/NUP53] | 2.33 ± 0.067 | 2.12 ± 0.073 | 2.34 ± 0.12 | 2.45 ± 0.045
KILSPTMYMEVYTAIYN [CDC53] | 1.58 ± 0.058 | 1.62 ± 0.061 | 1.63 ± 0.08 | 1.74 ± 0.055
KKQPSILVGGTLKDYQI [SNF2] | 2.31 ± 0.11 | 2.71 ± 0.099 | 2.35 ± 0.11 | 2.47 ± 0.083
LQRQQRKSKLNLDNLQK [POP4] | 2.72 ± 0.077 | 3.22 ± 0.2 | 3.09 ± 0.064 | 2.92 ± 0.15
IDATLKEELLRDGVLTV [RRP45] | 1.8 ± 0.047 | 1.92 ± 0.05 | 2 ± 0.081 | 2.04 ± 0.045
MINGRKLIKFETRNEDD [FAS1] | 2.9 ± 0.071 | 2.81 ± 0.068 | 3.07 ± 0.047 | 2.81 ± 0.044
ALFQPPNFDWDLCSSVL [ROX3] | 3.08 ± 0.077 | 3.29 ± 0.098 | 2.95 ± 0.089 | 2.92 ± 0.09
QIDQLNRLLPNLPEEER [GRR1] | 2.62 ± 0.091 | 2.12 ± 0.064 | 2.05 ± 0.098 | 2.51 ± 0.083
QFQRLAPSLTVPPIASP [PRE2] | 2.14 ± 0.053 | 2.03 ± 0.049 | 1.85 ± 0.055 | 2.15 ± 0.038
EDEEDDNISSFHSAVEN [YCG1] | 3.12 ± 0.069 | 3.2 ± 0.095 | 3.26 ± 0.052 | 2.6 ± 0.063
VKLIVMLCTLTGYQNND [YJL039C/NUP192] | 1.89 ± 0.12 | 1.25 ± 0.078 | 1.29 ± 0.17 | 1.25 ± 0.098
IILPLDNATLTELVDKA [SSN2] | 2.54 ± 0.11 | 3.16 ± 0.15 | 2.6 ± 0.099 | 1.95 ± 0.26
FNNQGKLDLFKYFTELS [MED1] | 3.07 ± 0.092 | 2.83 ± 0.072 | 2.92 ± 0.056 | 2.88 ± 0.092
NLEESSKLDIYTQQQAL [RET1] | 2.9 ± 0.087 | 2.77 ± 0.078 | 2.47 ± 0.07 | 2.94 ± 0.079
DYGEEIKSGVAKLESLL [MTW1] | 3.26 ± 0.24 | 3.11 ± 0.12 | 3.37 ± 0.13 | 3.4 ± 0.087
ERSICALGEFADWDPES [YML031W/NDC1] | 3.5 ± 0.14 | 3.53 ± 0.092 | 3.28 ± 0.088 | 3.27 ± 0.064
FEKNTILQQRSKINSTE [MED4] | 2.79 ± 0.073 | 3.07 ± 0.084 | 2.81 ± 0.07 | 3.15 ± 0.086
ELNDIDTKIDQVNGNIR [SMC3] | 3.34 ± 0.22 | 3.34 ± 0.12 | 3.07 ± 0.13 | 3.2 ± 0.1
TVVQVYDNGQVFPSSIL [RPP0] | 1.19 ± 0.059 | 1.29 ± 0.13 | – | 1.29 ± 0.14
PAKVAEEGINKFKKEKF [SRP54] | 3.2 ± 0.066 | 3.44 ± 0.059 | 3.38 ± 0.046 | 3.23 ± 0.057
VFPSSILDITDEELVSH [RPP0] | 2.89 ± 0.067 | 2.94 ± 0.1 | 3.26 ± 0.068 | 2.99 ± 0.065
